# Measurements: FireProtDB
# Where “and” joins values, the source holds several entries; their conditions need not be identical. Equal entries are not always repeated.
# B1: Alpha-amylase, P29957 (parent)
# chain: MKLNKIITTAGLSLGLLLPSIATATPTTFVHLFEWNWQDVAQECEQYLGPKGYAAVQVSPPNEHITGSQWWTRYQPVSYELQSRGGNRAQFIDMVNRCSAAGVDIYVDTLINHMAAGSGTGTAGNSFGNKSFPIYSPQDFHESCTINNSDYGNDRYRVQNCELVGLADLDTASNYVQNTIAAYINDLQAIGVKGFRFDASKHVAASDIQSLMAKVNGSPVVFQEVIDQGGEAVGASEYLSTGLVTEFKYSTELGNTFRNGSLAWLSNFGEGWGFMPSSSAVVFVDNHDNQRGHGGAGNVITFEDGRLYDLANVFMLAYPYGYPKVMSSYDFHGDTDAGGPNVPVHNNGNLECFASNWKCEHRWSYIAGGVDFRNNTADNWAVTNWWDNTNNQISFGRGSSGHMAINKEDSTLTATVQTDMASGQYCNVLKGELSADAKSCSGEVITVNSDGTINLNIGAWDAMAIHKNAKLNTSSASSTESDWQRTVIFINAQTQSGQDMFIRGGIDHAYANANLGRNCQTSNFECAMPIRHNNLKNVTTSPWKANDNYLDWYGIENGQSSEAEGSATDWTTNVWPAGWGAEKTVNTDGFGVTPLNIWGEHYWMLDVDMDCSKAVNGWFELKAFIKNGQGWETAIAQDNAPYTSTNHMAQCGKINKFEFNNSGVVIRSF
# B2: E81Q|D148N, P95467 (parent)
# chain: MKKALIASTALLLTAGVAAADVKISGYGRTGVIYYENDSDVNESRVQSRLRMNIDASSSTDSGVDFGARFRLQWDQGEEGEAQTNAGKLWVSAQGFTVEVGNVDTAFASNGLIYETGLGSYDRSVGFSAVTGAFFAYDSNGYGIDEVDRVGIRALYTLGDLTLQASYVDPDQSGTVIGVEEEFGFSVDYTWNERLELSAAAAFNGAGIDGNDIYFLGARYAVMDNARIGLNFVDAGDEEDGYDGKTIALYGDYTLADGRTNLEAYIANNDRDSNETDNAFGIGVNYDLGGARLGASLQRDYAENVTADFGVRFEF
# B3: Penicillolysin, P47189 (parent)
# chain: MRFTTLSTAFLALAQNVYAFPIESDLSALDVTLSQVSDTRIKAVVKNTGAENVTFVHLNFFRDSAPVKKVSVYRENNEVVFDGIKRRFQLQGLASESLTTLEAGEVLEDEFDIATTTDLSSGGAITLRSNGLVPVVKDGAVTGYLPYSSNDLKLNIDGAKASTVTKALKPLDRRTKETCSNASRKSALEKALSNTVKLANAAATAARSGSASKFSEYFKTTSSSTRSVVAARLEAVAKEAQSASSGSTTYYCSDTLGYCETNVLAYTLPARNIIANCDIYYSYLPALAGTCHQQDQATTTLHEFTHAPGVYSPGTDDLGYGYSAATSLSSSQAVLNADSYALYANAINLGC
# B4: Gamma-crystallin S, P22914 (parent)
# chain: MSKTGTKITFYEDKNFQGRRYDCDCDCADFHTYLSRCNSIKVEGGTWAVYERPNFAGYMYILPQGEYPEYQRWMGLNDRLSSCRAVHLPSGGQYKIQIFEKGDFSGQMYETTEDCPSIMEQFHMREIHSCKVLEGVWIFYELPNYRGRQYLLDKKEYRKPIDWGAASPAVQSFRRIVE
# B5: Growth factor receptor-bound protein 2, Q08012 (parent)
# chain: MEAIAKHDFSATADDELSFRKTQILKILNMEDDSNWYRAELDGKEGLIPSNYIEMKNHDWYYGRITRADAEKLLSNKHEGAFLIRISESSPGDFSLSVKCPDGVQHFKVLRDAQSKFFLWVVKFNSLNELVEYHRTASVSRSQDVKLRDMIPEEMLVQALYDFVPQESGELDFRRGDVITVTDRSDENWWNGEIGNRKGIFPATYVTPYHS
# B6: Beta-lactoglobulin, P02754 (parent)
# chain: MKCLLLALALTCGAQALIVTQTMKGLDIQKVAGTWYSLAMAASDISLLDAQSAPLRVYVEELKPTPEGDLEILLQKWENGECAQKKIIAEKTKIPAVFKIDALNENKVLVLDTDYKKYLLFCMENSAEPEQSLACQCLVRTPEVDDEALEKFDKALKALPMHIRLSFNPTQLEEQCHI
# B7: Interleukin-6, P08505 (parent)
# chain: MKFLSARDFHPVAFLGLMLVTTTAFPTSQVRRGDFTEDTTPNRPVYTTSQVGGLITHVLWEIVEMRKELCNGNSDCMNNDDALAENNLKLPEIQRNDGCYQTGYNQEICLLKISSGLLEYHSYLEYMKNNLKDNKKDKARVLQRDTETLIHIFNQEVKDLHKIVLPTPISNALLTDKLESQKEWLRTKTIQFILKSLEEFLKVTLRSTRQT
# B8: Ornithine carbamoyltransferase subunit I, P04391 (parent)
# chain: MSGFYHKHFLKLLDFTPAELNSLLQLAAKLKADKKSGKEEAKLTGKNIALIFEKDSTRTRCSFEVAAYDQGARVTYLGPSGSQIGHKESIKDTARVLGRMYDGIQYRGYGQEIVETLAEYASVPVWNGLTNEFHPTQLLADLLTMQEHLPGKAFNEMTLVYAGDARNNMGNSMLEAAALTGLDLRLVAPQACWPEAALVTECRALAQQNGGNITLTEDVAKGVEGADFIYTDVWVSMGEAKEKWAERIALLREYQVNSKMMQLTGNPEVKFLHCLPAFHDDQTTLGKKMAEEFGLHGGMEVTDEVFESAASIVFDQAENRMHTIKAVMVATLSK
# Variants of: B1
# Details: Pseudoalteromonas haloplanktis; pH 7.2; Thermal; DSC; Mops 30 mM; NaCl 50 mM; reversible: yes; structure 1AQH; whole UniProt chain shown
Variant,Tm [°C],"change of melting temperature, mutant - wild type (higher = more stable) [°C]",unfolding enthalpy (calorimetric) [kcal/mol]
K324R N174D V220F Q188I T256V,51.8,7.8,277

# Variants of: B2
# Details: Paracoccus denitrificans; pH 8; Thermal; Absorbance; Tris-HCl 50 mM; NaCl 100 mM; reversible: no; whole UniProt chain shown
Variant,Tm [°C],"change of melting temperature, mutant - wild type (higher = more stable) [°C]"
E81Q D148N,82.3,-3.9
W74C,82.4,-3.8
E81Q,84.2,-2

# Variants of: B3
# Details: Penicillium citrinum; pH 5; Thermal; CD; sodium acetate 10 mM; reversible: no; whole UniProt chain shown
Variant,Tm [°C],"change of melting temperature, mutant - wild type (higher = more stable) [°C]"
A341E,70,2
R207E E234R,70,2
T255P,71,3

# Variants of: B4
# Details: Homo sapiens; pH 7.4; Thermal; Fluorescence; Disodium phosphate; NaCl; structure 6FD8; whole UniProt chain shown
Variant,Tm,"change of melting temperature, mutant - wild type (higher = more stable)"
S39C,61.3 °C and 58.8 °C,-6.2 °C and -7 °C

# Variants of: B5
# Details: Drosophila melanogaster; pH 6; 20 °C; GdnHCl; Fluorescence; phosphate 50 mM; structure 2A36; whole UniProt chain shown
Variant,ddG of mutation (higher = less stable) [kcal/mol],denaturant m value [kcal/mol/M],unfolding free energy [kcal/mol]
T22G,-3.6,2.2,4

# Variants of: B6
# Details: Bos taurus; pH 7.1; 30 °C; GdnHCl; CD; phosphate 0.11 M; NaCl 0.04 M; structure 1B0O; whole UniProt chain shown
Variant,ddG of mutation (higher = less stable) [kcal/mol],unfolding free energy [kcal/mol]
W35Y,6.91,4.3

# Variants of: B7
# Details: Mus musculus; pH 4; 25 °C; Urea; CD; Sodium acetate 20 mM/; reversible: yes; structure 2L3Y; whole UniProt chain shown
row,Variant,denaturant midpoint (higher = more stable) [M]
1,Y123A,4.1
2,F200A,2.6

# Same assay, conditions: Mus musculus; pH 4; 25 °C; Urea; Fluorescence; Sodium acetate 20 mM/; reversible: yes; structure 2L3Y; whole UniProt chain shown
row,Variant,denaturant midpoint (higher = more stable) [M]
1,F200A,3.5

# Same assay, conditions: Mus musculus; pH 4; 37 °C; Urea; CD; Sodium acetate 20 mM/; reversible: yes; structure 2L3Y; whole UniProt chain shown
row,Variant,denaturant midpoint (higher = more stable) [M]
1,F200A,2.6

# Same assay, conditions: Mus musculus; pH 4; 37 °C; Urea; Fluorescence; Sodium acetate 20 mM/; reversible: yes; structure 2L3Y; whole UniProt chain shown
row,Variant,denaturant midpoint (higher = more stable) [M]
1,F200A,3.5

# Variants of: B8
# Details: Escherichia coli (strain K12); pH 8.3; Thermal; DSC; borate 40 mM; structure 1AKM; whole UniProt chain shown
Variant,Tm [°C],unfolding enthalpy (calorimetric) [kcal/mol]
R320A,69.6,710
K87Q,69.7,690
A326G,63,660
